Test results reported in CN112851815A (XIAN YUFAN BIOTECHNOLOGIES CO LTD, dated 2021).

Assays:
[1] = target: T1, BSA蛋白 (BSA, control protein) (UniProt P02769 25-607); experiment: ELISA, BSA coated at 2 μg/mL, serially diluted scFv, detection by anti-HA and HRP goat anti-mouse IgG
T1 construct: Control protein coated at 2 μg/mL; also called 对照蛋白

[2] = target: T2, BCMA蛋白 (BCMA protein, B cell maturation antigen) (human, UniProt Q02223 1-54); experiment: ELISA, BCMA coated at 2 μg/mL, serially diluted scFv, detection by mouse anti-HA and HRP goat anti-mouse IgG, OD450
T2 construct: extracellular domain; also called 抗原BCMA; CD269
T2 sequence (looked up): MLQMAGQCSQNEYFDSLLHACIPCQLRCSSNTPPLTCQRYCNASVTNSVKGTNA

T1 sequence (P02769 25-607 limits assumed): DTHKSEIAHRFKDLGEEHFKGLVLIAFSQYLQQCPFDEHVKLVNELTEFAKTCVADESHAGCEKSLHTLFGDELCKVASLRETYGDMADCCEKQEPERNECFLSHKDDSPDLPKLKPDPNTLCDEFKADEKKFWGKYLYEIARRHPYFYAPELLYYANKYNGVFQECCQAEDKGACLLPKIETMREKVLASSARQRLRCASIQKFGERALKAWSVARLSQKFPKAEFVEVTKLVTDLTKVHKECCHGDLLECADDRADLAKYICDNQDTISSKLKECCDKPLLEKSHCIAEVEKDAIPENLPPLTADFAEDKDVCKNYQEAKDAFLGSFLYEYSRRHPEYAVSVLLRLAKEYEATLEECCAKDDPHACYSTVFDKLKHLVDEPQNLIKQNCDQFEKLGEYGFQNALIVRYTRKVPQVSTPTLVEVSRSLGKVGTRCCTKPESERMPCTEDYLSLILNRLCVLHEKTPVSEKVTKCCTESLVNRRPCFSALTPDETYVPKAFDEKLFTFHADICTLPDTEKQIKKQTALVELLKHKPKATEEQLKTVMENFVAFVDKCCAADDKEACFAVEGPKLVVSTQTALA

binding result [1]: no binding
EC50 [2]: 0.5 nM
B1: 抗BCMA单链抗体B36 (anti-BCMA fully human scFv B36) (scFv)
scFv: QVQLVQSGAEVKKPGSSVKVSCKASGGTFSSYAISWVRQAPGQGLEWMGRIIPILGIANYAQKFQGRVTITADESTSTAYMELSSLRSDDTAVYYCARAGYDRSGYYFQHWGQGTLVTVSSGGGGSGGGGSGGGGSVLTQPPSVSGTPGQRVTISCSGSSSNIGSNIVNWYQQVPGTAPKLLIYSNNQRPSGVPGRFSGSKSGTSASLAIRGLQSDDEADYYCAAWDGGPRGHYVFGTGTKVSVL
notes: The purified protein carries C-terminal HA and 6xHis tags; also called 抗BCMA抗体; 抗人BCMA单链抗体; not shown: C-terminal 6xHis tag from vector pET-26b; junction residues between insert and t
